Laboratory results as given in US20030032785, “High-affinity oligonucleotide ligands to vascular endothelial growth factor (VEGF)” (published 2003).

Target: VEGF165 (vascular endothelial growth factor, 165 aa form) (Homo sapiens, UniProt P15692-4 P15692-4:27-191)
Test: filter
Settings: tags: gift of N. Ferrara, Genentech; chain copies: 2 stated
Procedure: Nitrocellulose Filter Binding Assays. Oligonucleotides bound to proteins can be effectively separated from the unbound species by filtration through nitrocellulose membrane filters (Yarus, M. and Berg, P. (1970) Anal. Biochem. 35:450-465; Lowary, P. T. and Uhlenbeck, O. C. (1987) Nucleic Acids Res. 15:10483-10493; Tuerk, C. and Gold, L. (1990) supra). Nitrocellulose filters (0.2 μm pore size, Schleicher and Schuell, Keene, N.H.) were secured on a filter manifold and washed with 4-10 ml of buffer; Following incubations of ³²P labeled RNA with serial dilutions of the protein for 10 min at 37° C. in buffer (PBS) containing 0.01% human serum albumin (HSA), the solutions were applied to the filters under gentle vacuum in […] aliquots and washed with 5 ml of PBS. The filters were then dried under an infrared lamp and counted in a scintillation counter.
To this end, certain ligands were synthesized and tested for binding affinity. The binding studies were performed using the protocols described in Example 1.

Chain of VEGF165 (vascular endothelial growth factor, 165 aa form) (P15692 other isoform, or with tags, fused parts or gaps): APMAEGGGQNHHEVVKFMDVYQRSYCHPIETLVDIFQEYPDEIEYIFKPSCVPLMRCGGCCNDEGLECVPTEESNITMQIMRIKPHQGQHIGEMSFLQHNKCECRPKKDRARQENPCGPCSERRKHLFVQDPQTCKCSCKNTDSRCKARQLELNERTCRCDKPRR

ACCCUGAUGGUAGACGCCGGGGUG (ssRNA, 2'-NH2 at all C and U; G9,A12,A14 2:1 mixture 2'-OMe:2'-OH) [NX-203]
Kd: 0.2 nM
